Results as given in publication PMC7473641, “The C-terminal helix of BubR1 is essential for CENP-E-dependent chromosome alignment” (Journal of Cell Science, 2020).

B1: CENP-E_(2055–2358), minimal kinetochore-targeting domain of CENP-E (domain or fragment, human, UniProt Q02224-1 2055-2358, looked up)
chain: RDQFIATLREMIARDRQNHQVKPEKRLLSDGQQHLTESLREKCSRIKELLKRYSEMDDHYECLNRLSLDLEKEIEFQKELSMRVKANLSLPYLQTKHIEKLFTANQRCSMEFHRIMKKLKYVLSYVTKIKEEQHESINKFEMDFIDEVEKQKELLIKIQHLQQDCDVPSRELRDLKLNQNMDLHIEEILKDFSESEFPSIKTEFQQVLSNRKEMTQFLEEWLNTRFDIEKLKNGIQKENDRICQVNNFFNNRIIAIMNESTEFEERSATISKEWEQDLKSLKEKNEKLFKNYQTLKTSLASGAQ
notes: Monomer by SEC-MALS; source: E. coli BL21-CodonPlus (DE3)-RIL, purified (HisTrap, Superdex 200)
B2: CENP-E_(2055–2608), kinetochore- and centrosome-targeting domain of CENP-E (domain or fragment, human, UniProt Q02224-1 2055-2608, looked up)
chain: RDQFIATLREMIARDRQNHQVKPEKRLLSDGQQHLTESLREKCSRIKELLKRYSEMDDHYECLNRLSLDLEKEIEFQKELSMRVKANLSLPYLQTKHIEKLFTANQRCSMEFHRIMKKLKYVLSYVTKIKEEQHESINKFEMDFIDEVEKQKELLIKIQHLQQDCDVPSRELRDLKLNQNMDLHIEEILKDFSESEFPSIKTEFQQVLSNRKEMTQFLEEWLNTRFDIEKLKNGIQKENDRICQVNNFFNNRIIAIMNESTEFEERSATISKEWEQDLKSLKEKNEKLFKNYQTLKTSLASGAQVNPTTQDNKNPHVTSRATQLTTEKIRELENSLHEAKESAMHKESKIIKMQKELEVTNDIIAKLQAKVHESNKCLEKTKETIQVLQDKVALGAKPYKEEIEDLKMKLVKIDLEKMKNAKEFEKEISATKATVEYQKEVIRLLRENLRRSQQAQDTSVISEHTDPQPSNKPLTCGGGSGIVQNTKALILKSEHIRLEKEISKLKQQNEQLIKQKNELLSNNQHLSNEVKTWKERTLKREAHKQVTCENSPKS
notes: Dimer by SEC-MALS; Aggregated in 150 mM NaCl and was kept in 500 mM NaCl; Cloned in pET-3aTr; also called longer dimeric kinetochore-targeting domain; source: E. coli BL21-CodonPlus (DE3)-RIL, purified (HisTrap, Superdex 200 in 500 mM NaCl)
B3: CENP-E_(2069–2358)–GST (domain or fragment, human, UniProt Q02224-1 2069-2358, looked up)
chain: DRQNHQVKPEKRLLSDGQQHLTESLREKCSRIKELLKRYSEMDDHYECLNRLSLDLEKEIEFQKELSMRVKANLSLPYLQTKHIEKLFTANQRCSMEFHRIMKKLKYVLSYVTKIKEEQHESINKFEMDFIDEVEKQKELLIKIQHLQQDCDVPSRELRDLKLNQNMDLHIEEILKDFSESEFPSIKTEFQQVLSNRKEMTQFLEEWLNTRFDIEKLKNGIQKENDRICQVNNFFNNRIIAIMNESTEFEERSATISKEWEQDLKSLKEKNEKLFKNYQTLKTSLASGAQ
notes: no own measurement of the oligomeric state; source: E. coli BL21-CodonPlus (DE3)-RIL, purified; not shown: GST, C-terminal, kept
B4: BubR1_(705–1050), pseudokinase domain of BubR1 (domain or fragment, human, UniProt O60566 705-1050, looked up)
chain: EKLELTNETSENPTQSPWCSQYRRQLLKSLPELSASAELCIEDRPMPKLEIEKEIELGNEDYCIKREYLICEDYKLFWVAPRNSAELTVIKVSSQPVPWDFYINLKLKERLNEDFDHFCSCYQYQDGCIVWHQYINCFTLQDLLQHSEYITHEITVLIIYNLLTIVEMLHKAEIVHGDLSPRCLILRNRIHDPYDCNKNNQALKIVDFSYSVDLRVQLDVFTLSGFRTVQILEGQKILANCSSPYQVDLFGIADLAHLLLFKEHLQVFWDGSFWKLSQNISELKDGELWNKFFVRILNANDEATVSVLGELAAEMNGVFDTTFQSHLNKALWKVGKLTSPGALLFQ
notes: source: E. coli BL21-CodonPlus (DE3)-RIL (overnight at 18°C), purified (HisTrap, 3C protease, SEC); not shown: His6, N-terminal, cleaved
B5: CENP-E_(2091–2358)–GST (domain or fragment, human, UniProt Q02224-1 2091-2358, looked up)
chain: ESLREKCSRIKELLKRYSEMDDHYECLNRLSLDLEKEIEFQKELSMRVKANLSLPYLQTKHIEKLFTANQRCSMEFHRIMKKLKYVLSYVTKIKEEQHESINKFEMDFIDEVEKQKELLIKIQHLQQDCDVPSRELRDLKLNQNMDLHIEEILKDFSESEFPSIKTEFQQVLSNRKEMTQFLEEWLNTRFDIEKLKNGIQKENDRICQVNNFFNNRIIAIMNESTEFEERSATISKEWEQDLKSLKEKNEKLFKNYQTLKTSLASGAQ
notes: no own measurement; not shown: GST, C-terminal, kept

Key:
[1] = molecular target: B4; experiment: SEC; co-elution on Superdex Increase 200 10/300 GL in binding buffer (20 mM HEPES pH 7.5, 150 mM NaCl, 1 mM EDTA, 1 mM DTT); proteins mixed in equimolar ratio at ~7 µM; fractions on Coomassie gels; details: both partners purified
[2] = molecular target: T1, BubR1_(432–1050), C terminus of BubR1 containing the pseudokinase domain (human, UniProt O60566 432-1050); experiment: as above; details: both partners purified
T1 construct: source: purified recombinant

[3] = molecular target: the molecule itself; experiment: SEC-MALS; 100 µl at 1 mg/ml on Superdex-200 10/300 GL Increase, 22°C, gel filtration buffer (20 mM HEPES pH 7.5, 300 mM NaCl, or 500 mM for CENP-E 2055-2608, 1 mM EDTA, 1 mM DTT)
[4] = molecular target: B5; experiment: ITC; 276 µM BubR1 705-1050 titrated into 25 µM CENP-E 2091-2358-GST at 37°C; 20 mM HEPES pH 7.5, 150 mM NaCl, 1 mM EDTA, 0.005% Tween-20, 0.5 mM TCEP; one set of sites; details: both partners purified
[5] = molecular target: B4; experiment: as above; details: both partners purified

Binder: B1
- binding result [1]: binds

Binder: B2
- binding result [2]: binds
- stoichiometry N [3]: 2

Binder: B3
- binding result [1]: binds

Binder: B4
- dH [4]: -5.1 kcal/mol
- stoichiometry N [4]: 0.908

Binder: B5
- Kd [5]: 318 nM
